Experimental findings from publication PMC4987126 (Molecular immunology, 2016) are described below.

The assay concerns the target T1, synthetic peptide of the C1q A chain, residues 14–26 (collagen region).
T1 peptide: AGRPGRRGRPGLK
In words: ELISA. Background: ELISA stands for enzyme-linked immunosorbent assay.

B1: gp41-3S, 17-residue synthetic peptide corresponding to the 3S motif of gp41 (peptide)
peptide: PWNASWSNKSLDDIWNC
As for B1, the binding result is on record as “binds”.
